Results on 15 molecules are retold here after US20030124119A1 (published 2003).

Residue numbers refer to the chain shown, from its start.

Experiment [1] addresses T1, human PTHrP (1-34) (human).
T1 construct: Coated on ELISA plates (Peptide Research Institute) and used in RIA screening and the cAMP assay
Kind of experiment: ELISA, plate coated with 1 µg/ml human PTHrP (1-34). The procedure: An ELISA plate for the determination of antigen-binding ability was prepared as follows. Each well of a 96-well ELISA plate was coated with 100 μl of a coating buffer supplemented with 1 μg/ml of human PTHrP (1-34) (Peptide Research Institute), and then blocked with 200 μl of a dilution buffer. Each well was added with each of the serial dilutions of the COS-7 cell culture supernatant in which each of the chimeric antibodies had been expressed, or added with each of the serial dilutions of each of the chimeric antibodies per se in a purified form. After the plate was incubated at room temperature and washed with PBS-Tween 20, each well of the plate was added with 100 μl of a solution of alkaline phosphatase-conjugated goat anti-human IgG antibodies (TAGO). After the plate was incubated at room temperature and washed with PBS-Tween 20, each well of the plate was added with 1 mg/ml of a substrate solution (“Sigma 104”, p-nitrophenylphosphoric acid, SIGMA). The solution was measured on its absorbance at 405 nm using Microplate Reader (Bio Rad).
An ELISA plate for determining antigen-binding ability was prepared as follows. Each well of a 96-well ELISA plate (Maxisorp, NUNC) was coated with 100 μl of a coating buffer containing 1 μg/ml of human PTHrP (1-34) and then blocked with 200 μl of a dilution buffer. Subsequently, each well was added with each of the serial dilutions of the COS-7 cell culture supernatant in which each of the hybrid antibodies and humanized antibodies was expressed, or added with each of the serial dilutions of each of the hybrid antibodies and humanized antibodies in a purified form. The plate was incubated at room temperature and washed with PBS-Tween 20. Subsequently, each well was added with 100 μl of alkaline phosphatase-conjugated goat anti-human IgG antibody (TAGO). The plate was incubated at room temperature and washed with PBS-Tween 20. Subsequently, each well was added with 1 mg/ml of a substrate solution (“Sigma 104”, p-nitrophenylphosphoric acid, SIGMA). The solution was measured on its absorbance at 405 nm using Microplate Reader (Bio Rad).
Background: In an ELISA, binding on a coated surface is turned into a signal by an enzyme label.

Experiment [2] addresses T1, human PTHrP (1-34). The experiment can be described thus: solid phase RIA of hybridoma culture supernatants. As to the method:
The screening of hybridomas was performed by determining the presence of PTHrP-recognition antibodies in the culture supernatant of the wells in which cell growth had been observed in HAT medium, by solid phase RIA method. The hybridomas were collected from the wells in which the binding ability to the PTHrP-recognition antibodies had been confirmed. The hybridomas thus obtained was suspended into RPMI-1640 medium containing 15% FCS supplemented with OPI-supplement (Sigma), followed by unification of the hybridomas by limiting dilution method.

B1: humanized #23-57-137-1 antibody having L-chain version “s” (H-chain version “a”) (antibody, V domains shown)
VH: QVQLVESGGGVVQPGRSLRLSCAASGFTFSSYGMSWVRQAPGKGLEWVATISSGGSYTYYPDSVKGRFTISRDNSKNTLYLQMNSLRAEDTAVYYCARQTTMTYFAYWGQGTLVTVSS
VL: QLVLTQSPSASASLGASVKLTCTLSSQHSTYTIEWYQQQPEKGPKYVMDLKQDGSHSTGDGIPDRFSGSSSGAERYLTISSLQSEDEADYICGVGDTIKEQFVYVFGGGTKLTVLG
notes: also called hMBC1Lsλ
As to B1, in the experiment with human PTHrP (1-34) [1], the binding result is “binds”.

B2: mouse FR1,2/human FR3,4 hybrid antibody (L-chain m/hMBC1Ldλ, H-chain hMBC1HcDNA) (antibody, V domains shown)
VH: B1 VH
VL: QLVLTQSSSASFSLGASAKLTCTLSSQHSTYTIEWYQQQPLKPPKYVMDLKQDGSHSTGDGIPDRFSGSSSGAERYLTISSLQSEDEADYICGVGDTIKEQFVYVFGGGTKLTVL
notes: Human Cγ1 and human λ C-regions
Regarding B2, the binding result with human PTHrP (1-34) [1] was “binds”.

B3: humanized #23-57-137-1 antibody having L-chain version “j” (H-chain version “a”) (antibody, V domains shown)
VH: B1 VH
VL: B1 VL with V47L, I91Y
notes: Human Cγ1 and human λ C-regions; also called hMBC1Ljλ
For the molecule B3, the binding result with human PTHrP (1-34) [1] is reported as “binds”.

B4: antibody having both a humanized H-chain version “a” and a chimeric L-chain (antibody, V domains shown)
VH: B1 VH
VL: QLVLTQSSSASFSLGASAKLTCTLSSQHSTYTIEWYQQQPLKPPKYVMDLKQDGSHSTGDGIPDRFSGSSSGADRYLSISNIQPEDEAMYICGVGDTIKEQFVYVFGGGTKVTVLG
notes: Human Cγ1 H-chain C-region
With B4, the binding result in the experiment with human PTHrP (1-34) [1] is reported as “binds”.

B5: humanized #23-57-137-1 antibody having L-chain version “q” (H-chain version “a”) (antibody, V domains shown)
VH: B1 VH
VL: B1 VL with V47L
notes: Human Cγ1 and human λ C-regions; also called hMBC1Lqλ
As for B5, the binding result with human PTHrP (1-34) [1] is on record as “binds”.

B6: humanized #23-57-137-1 antibody having L-chain version “o” (H-chain version “a”) (antibody, V domains shown)
VH: B1 VH
VL: B1 VL with K45R, I91Y
notes: Human Cγ1 and human λ C-regions; also called hMBC1Loλ
As for B6, in the experiment with human PTHrP (1-34) [1], the binding result was “binds”.

B7: humanized #23-57-137-1 antibody having L-chain version “r” (H-chain version “a”) (antibody, V domains shown)
VH: B1 VH
VL: B1 VL with K45R, V47L
notes: also called hMBC1Lrλ
B7: the binding result with human PTHrP (1-34) [1] was “binds”.

B8: humanized #23-57-137-1 antibody having L-chain version “t” (H-chain version “a”) (antibody, V domains shown)
VH: B1 VH
VL: B1 VL with K45R
notes: Human Cγ1 and human λ C-regions; also called hMBC1Ltλ
As to B8, the binding result in the experiment with human PTHrP (1-34) [1] is listed as “binds”.

B9: human FR1/mouse FR2,3,4 hybrid antibody (L-chain hmmMBC1L(λ), H-chain hMBC1HcDNA) (antibody, V domains shown)
VH: B1 VH
VL: B2 VL with S8P, F12A, A18V, E74D, T78S, S81N, L82I, S84P, D89M, L112V
notes: Human Cγ1 and human λ C-regions; also called FR1/FR2 hybrid antibody
Turning to B9, the binding result with human PTHrP (1-34) [1] is reported as “binds”.

B10: mouse FR1,2/human FR3,4 hybrid antibody (L-chain m/hMBC1Laλ, H-chain hMBC1HcDNA) (antibody, V domains shown)
VH: B1 VH
VL: B2 VL with I91Y
notes: as for B2
As to B10, in the experiment with human PTHrP (1-34) [1], the binding result is given as “binds”.

B11: humanized #23-57-137-1 antibody having L-chain version “m” (H-chain version “a”) (antibody, V domains shown)
VH: B1 VH
VL: B1 VL with K45R, V47L, I91Y
notes: Human Cγ1 and human λ C-regions; also called hMBC1Lmλ
Consider B11, for which the binding result with human PTHrP (1-34) [1] is on record as “binds”.

B12: humanized #23-57-137-1 antibody having L-chain version “l” (H-chain version “a”) (antibody, V domains shown)
VH: B1 VH
VL: B1 VL with I91Y
notes: Human Cγ1 and human λ C-regions; also called hMBC1Llλ
As for B12, in the experiment with human PTHrP (1-34) [1], the binding result is reported as “binds”.

B13: mouse monoclonal antibody #23-57-137-1 against human PTHrP (1-34) (antibody, V domains shown)
VH: EVQLVESGGDLVKPGGSLKLSCAASGFTFSSYGMSWIRQTPDKRLEWVATISSGGSYTYYPDSVKGRFTISRDNAKNTLYLQMSSLKSEDTAMFYCARQTTMTYFAYWGQGTLVTVSA
VL: B4 VL
notes: Mouse antibody from the hybridoma (FERM BP-5631); mouse λ L-chain; tested as hybridoma culture supernatant
As to B13, in the experiment with human PTHrP (1-34) [2], the binding result is on record as “binds”.

B14: chimeric #23-57-137-1 antibody with L-chain κ chain C-region (antibody, V domains shown)
VH: B13 VH
VL: B4 VL
notes: Mouse V-regions with human Cγ1 H-chain C-region and human κ C-region; expressed in COS-7 cells; also called chimeric antibody; MBC1HcDNA/pCOS1 and MBC1L(κ)/neo
Consider B14, for which the binding result with human PTHrP (1-34) [1] is on record as “binds”.

B15: chimeric #23-57-137-1 antibody with L-chain λ chain C-region (antibody, V domains shown)
VH: B13 VH
VL: B4 VL
notes: expressed in COS-7 cells; also called chimeric antibody; MBC1HcDNA/pCOS1 and MBC1L(λ)/neo
In the case of B15, in the experiment with human PTHrP (1-34) [1], the binding result was “binds”.
